Results: patent US20190111150A1 (AbbVie / Abbott, published 2019)

Assays:
recombinant mouse CD71 = target: T1, recombinant mouse CD71 (mouse, UniProt Q62351 89-763); assay: ELISA on recombinant mouse CD71 (ECD)
T1 construct: extracellular domain; also called mouse CD71 ECD

[1] = target: T2, human CD71 on the surface of human cell lines (human, UniProt P02786 1-760); assay: FACS on NCI H292 cells; apparent Kd (Kapp)
T2 construct: whole, on cells; also called cell-surface human CD71; CD71 on BxPC3, NCI-H292, HCC1806, HT-29, NCI-H520 cells

[2] = target: T3, rat CD71 on rat H-4-II-E hepatoma cells (rat, UniProt Q99376 1-761); assay: flow cytometry on rat H-4-II-E hepatoma cells
T3 construct: whole, on cells; also called rat CD71-expressing cell line

[3] = target: T4, recombinant human CD71 extracellular domain (human, UniProt P02786 89-760); assay: ELISA on recombinant CD71 ECD; apparent Kd (Kapp)
T4 construct: extracellular domain; Treated as one molecule; also called rhCD71; human CD71 ECD

[4] = target: T5, recombinant cynomolgus monkey CD71 extracellular domain (cynomolgus monkey, UniProt H9EXL1 89-760 (rhesus entry)); assay: ELISA on recombinant CD71 ECD; apparent Kd (Kapp)
T5 construct: extracellular domain; also called rcCD71; monkey recombinant CD71

[5] = target: T2, human CD71 on the surface of human cell …; assay: flow cytometry on human BxPC3 cells; apparent Kd (Kapp)
[6] = target: T4, recombinant human CD71 extracellular …; assay: ELISA on coated recombinant human CD71 ECD (rhCD71); Kapp
Procedure: (§1) In the ELISA examples, recombinant cynomolgus or human CD71 ECD proteins were coated on ELISA plates, and then incubated with one of a range of concentrations of the test articles of the present disclosure, followed by measurement of the amount of bound test article with a secondary antibody.

[7] = target: T5, recombinant cynomolgus monkey CD71 …; assay: ELISA on coated recombinant cynomolgus CD71 ECD (rcCD71); Kapp
Procedure: as §1

[8] = target: T6, cynomolgus monkey CD71 on cells (cynomolgus monkey, UniProt H9EXL1 1-760 (rhesus entry)); assay: flow cytometry on CHO-K1 cells expressing cynomolgus CD71; Kapp
T6 construct: whole, on cells; also called cell-surface cynomolgus CD71; CHO w/ Cynomolgus CD71
Source text: (§2) The flow cytometry results reflect the average measured Kapp from four human cell lines (HCC1806 human breast cancer, HT-29 human colorectal cancer, NCI-H292 human lung cancer, and NCI-H520 human lung cancer) and one CHO-K1 cell line expressing cynomolgus monkey CD71.

[9] = target: T6, cynomolgus monkey CD71 on cells; assay: flow cytometry on cynomolgus monkey primary kidney epithelial cells; apparent Kd (Kapp)
[10] = target: T2, human CD71 on the surface of human cell …; assay: flow cytometry, average of 4 human cell lines (HCC1806, HT-29, NCI-H292, NCI-H520); Kapp
Source text: as §2

[11] = target: T2, human CD71 on the surface of human cell …; assay: FACS on cells
[12] = target: T4, recombinant human CD71 extracellular …; assay: ELISA, recombinant human CD71 (R&D Systems) coated at 1 ug/mL; Kd(app)
Procedure: (§3) The amount of bound antibody in each sample was detected by incubation and detection by goat anti-human antibody conjugated to horseradish peroxidase and Ultra TMB (Thermo Fisher Scientific) detection.

[13] = target: T5, recombinant cynomolgus monkey CD71 …; assay: ELISA, recombinant cynomolgus CD71 (R&D Systems) coated at 1 ug/mL; Kd(app)
Procedure: as §3

[14] = target: T5, recombinant cynomolgus monkey CD71 …; assay: ELISA on plate-coated recombinant cynomolgus CD71 (1 µg/mL), goat anti-human HRP, TMB, Abs 450
Procedure: as §3

[15] = target: T5, recombinant cynomolgus monkey CD71 …; assay: ratio of Kapp; ELISA on rcCD71
Procedure: as §1

[16] = target: T4, recombinant human CD71 extracellular …; assay: ratio of Kapp; ELISA on rhCD71
Procedure: as §1

[17] = target: T6, cynomolgus monkey CD71 on cells; assay: ratio of Kapp; flow cytometry on CHO-K1 cyno CD71
Source text: as §2

[18] = target: T7, recombinant human FcγRIIIa F158 (human, UniProt P08637 17-208); assay: SPR (Biacore), FcγR captured via 6xHis tag, 1:1 binding fit
T7 construct: also called huFcγRIIIa F158
Procedure: (§4) Mouse anti-6×His antibodies were directly immobilized on a CMS chip by amine coupling according to manufacturer's protocol to the density of 10000 RU. Human FcγRs were then captured on Flow Cells 2, 3 and 4 to achieve capture level of the FcγRs of 250-500 RU. Flow Cell 1 was used as a reference surface. HBS-EP+ buffer (GE, Healthcare) was used as the running buffer. […] The chip surfaces were regenerated with an injection of 100 mM HCl at a flow rate of 100 μL/minute for two seconds over all four flow cells. Three experiments with the use of three different CMS chips were run for each sample (each in duplicate) to accommodate all types of experimental error (instrument, surface and operator). The results of these three experiments were averaged.
(§5) All recombinant human FcγRIIIa V158 data and FcγRIIIa F158 data were fitted to 1:1 binding fit model with Rmax fixed local to account for variability in capture levels. Recombinant human FcγRIIb, FcγRIIa H131, and FcRn binding data were fitted to a steady state affinity model. Biacore T200 Evaluation Software Version 2.0 was used to fit all the data.

[19] = target: T8, recombinant human FcγRIIIa V158 (human, UniProt P08637 17-208); assay: as above
T8 construct: also called huFcγRIIIa V158
Procedure: as §4, §5

[20] = target: T2, human CD71 on the surface of human cell …; assay: ratio of Kapp; flow cytometry, average of 4 human cell lines
Source text: as §2

[21] = target: T9, recombinant human FcγRIIa H131 (human, UniProt P12318 36-218, limits assumed); assay: SPR (Biacore), FcγR captured via 6xHis tag, steady state affinity model
T9 construct: also called huFcγRIIa H131; FcγIIa H131
T9 sequence (looked up): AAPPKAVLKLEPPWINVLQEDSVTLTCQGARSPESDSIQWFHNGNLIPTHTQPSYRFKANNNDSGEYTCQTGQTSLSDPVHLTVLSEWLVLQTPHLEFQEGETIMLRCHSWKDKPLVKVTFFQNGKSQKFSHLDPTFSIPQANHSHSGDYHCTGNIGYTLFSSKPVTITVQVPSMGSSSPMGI
Procedure: as §4, §5

human FcRn = target: T10, human FcRn (human, UniProt P55899 24-297; P61769 21-119); assay: SPR (Biacore), antibody immobilized, FcRn injected, pH 6.0, steady state affinity model; FcRn at pH 6.0
T10 construct: also called Hu FcRn; neonatal Fc receptor
Procedure: The surfaces were regenerated with an injection of 100 mM HCl for two seconds followed by HBS-EP+, pH 7.4. Samples were prepared and run in two running buffer systems, MES-EP+ pH 6.0 and HBS-EP pH 7.4. Three experiments with the use of three different CMS chips were run for each sample (each in duplicate) to account for instrument, surface and operator error. The results of these three experiments were averaged.
as §5

[22] = target: T6, cynomolgus monkey CD71 on cells; assay: flow cytometry on CHO cells expressing cynomolgus CD71, Alexa Fluor 647 goat anti-human IgG (MFI)
human FcγRI = human FcγRI (human, UniProt P12314 16-288, limits assumed); assay: FcγRI competition binding ELISA (results not shown)
human FcγRI, sequence (P12314 16-288 limits assumed): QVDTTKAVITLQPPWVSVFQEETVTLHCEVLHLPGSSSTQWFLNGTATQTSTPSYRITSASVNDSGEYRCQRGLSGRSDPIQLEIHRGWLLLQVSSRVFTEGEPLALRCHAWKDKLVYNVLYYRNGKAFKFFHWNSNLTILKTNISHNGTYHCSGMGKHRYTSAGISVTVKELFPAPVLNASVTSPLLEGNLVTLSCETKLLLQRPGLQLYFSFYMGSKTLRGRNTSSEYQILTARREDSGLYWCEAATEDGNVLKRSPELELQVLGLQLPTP

T4 sequence (P02786 89-760): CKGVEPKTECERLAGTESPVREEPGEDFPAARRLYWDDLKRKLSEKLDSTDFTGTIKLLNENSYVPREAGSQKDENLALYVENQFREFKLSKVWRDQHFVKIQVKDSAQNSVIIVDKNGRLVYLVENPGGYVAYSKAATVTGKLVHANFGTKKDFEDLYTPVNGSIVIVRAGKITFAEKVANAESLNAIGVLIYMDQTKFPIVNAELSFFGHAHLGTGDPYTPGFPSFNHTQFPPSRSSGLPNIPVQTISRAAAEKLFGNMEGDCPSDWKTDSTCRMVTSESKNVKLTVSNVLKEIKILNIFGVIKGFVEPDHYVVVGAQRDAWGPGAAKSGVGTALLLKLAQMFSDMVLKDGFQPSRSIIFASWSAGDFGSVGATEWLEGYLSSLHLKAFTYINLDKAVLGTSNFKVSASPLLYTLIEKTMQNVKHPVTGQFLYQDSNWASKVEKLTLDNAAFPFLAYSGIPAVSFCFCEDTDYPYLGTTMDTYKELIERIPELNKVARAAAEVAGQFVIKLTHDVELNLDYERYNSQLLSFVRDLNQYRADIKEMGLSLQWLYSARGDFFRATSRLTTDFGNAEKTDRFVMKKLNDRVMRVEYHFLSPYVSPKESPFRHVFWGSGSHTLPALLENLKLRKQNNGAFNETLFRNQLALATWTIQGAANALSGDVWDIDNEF
T5 sequence (chain, as listed by the source): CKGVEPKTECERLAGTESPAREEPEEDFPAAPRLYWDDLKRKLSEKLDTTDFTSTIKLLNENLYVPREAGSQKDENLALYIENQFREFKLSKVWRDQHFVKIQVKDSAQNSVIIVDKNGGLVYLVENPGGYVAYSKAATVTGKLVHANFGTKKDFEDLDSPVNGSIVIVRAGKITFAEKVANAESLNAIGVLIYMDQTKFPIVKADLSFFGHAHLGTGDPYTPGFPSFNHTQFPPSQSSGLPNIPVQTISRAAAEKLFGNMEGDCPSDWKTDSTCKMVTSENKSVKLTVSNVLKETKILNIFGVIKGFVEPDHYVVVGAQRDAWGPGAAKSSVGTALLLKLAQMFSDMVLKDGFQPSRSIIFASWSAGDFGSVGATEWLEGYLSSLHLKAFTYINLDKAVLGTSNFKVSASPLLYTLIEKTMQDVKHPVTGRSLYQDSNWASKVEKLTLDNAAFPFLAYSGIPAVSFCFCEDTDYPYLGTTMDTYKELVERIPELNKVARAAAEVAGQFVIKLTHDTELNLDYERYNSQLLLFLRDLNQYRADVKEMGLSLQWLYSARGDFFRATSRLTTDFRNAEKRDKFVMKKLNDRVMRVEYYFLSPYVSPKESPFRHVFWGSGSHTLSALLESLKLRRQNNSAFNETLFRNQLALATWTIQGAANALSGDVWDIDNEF
T2 sequence (P02786 whole entry): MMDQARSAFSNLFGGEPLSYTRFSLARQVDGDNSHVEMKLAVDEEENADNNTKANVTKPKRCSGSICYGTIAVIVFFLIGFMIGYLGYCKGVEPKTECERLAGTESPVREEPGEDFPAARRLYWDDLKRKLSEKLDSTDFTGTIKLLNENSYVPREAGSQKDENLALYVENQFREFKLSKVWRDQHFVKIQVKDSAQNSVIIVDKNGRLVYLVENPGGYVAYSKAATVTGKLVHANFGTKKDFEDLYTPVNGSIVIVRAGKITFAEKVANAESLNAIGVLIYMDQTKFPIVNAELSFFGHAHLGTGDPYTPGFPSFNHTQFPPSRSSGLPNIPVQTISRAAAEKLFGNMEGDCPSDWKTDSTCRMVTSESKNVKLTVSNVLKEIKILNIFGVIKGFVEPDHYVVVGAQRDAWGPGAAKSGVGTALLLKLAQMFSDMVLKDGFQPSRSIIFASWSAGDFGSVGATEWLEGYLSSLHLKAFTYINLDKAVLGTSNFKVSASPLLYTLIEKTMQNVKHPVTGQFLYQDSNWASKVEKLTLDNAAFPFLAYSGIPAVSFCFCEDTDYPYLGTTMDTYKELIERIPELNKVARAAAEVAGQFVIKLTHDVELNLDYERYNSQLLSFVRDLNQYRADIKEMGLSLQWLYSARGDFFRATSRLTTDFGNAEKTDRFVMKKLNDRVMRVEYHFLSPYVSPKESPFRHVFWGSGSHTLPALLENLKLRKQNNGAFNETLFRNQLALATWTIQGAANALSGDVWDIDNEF
T6 sequence (chain, as listed by the source): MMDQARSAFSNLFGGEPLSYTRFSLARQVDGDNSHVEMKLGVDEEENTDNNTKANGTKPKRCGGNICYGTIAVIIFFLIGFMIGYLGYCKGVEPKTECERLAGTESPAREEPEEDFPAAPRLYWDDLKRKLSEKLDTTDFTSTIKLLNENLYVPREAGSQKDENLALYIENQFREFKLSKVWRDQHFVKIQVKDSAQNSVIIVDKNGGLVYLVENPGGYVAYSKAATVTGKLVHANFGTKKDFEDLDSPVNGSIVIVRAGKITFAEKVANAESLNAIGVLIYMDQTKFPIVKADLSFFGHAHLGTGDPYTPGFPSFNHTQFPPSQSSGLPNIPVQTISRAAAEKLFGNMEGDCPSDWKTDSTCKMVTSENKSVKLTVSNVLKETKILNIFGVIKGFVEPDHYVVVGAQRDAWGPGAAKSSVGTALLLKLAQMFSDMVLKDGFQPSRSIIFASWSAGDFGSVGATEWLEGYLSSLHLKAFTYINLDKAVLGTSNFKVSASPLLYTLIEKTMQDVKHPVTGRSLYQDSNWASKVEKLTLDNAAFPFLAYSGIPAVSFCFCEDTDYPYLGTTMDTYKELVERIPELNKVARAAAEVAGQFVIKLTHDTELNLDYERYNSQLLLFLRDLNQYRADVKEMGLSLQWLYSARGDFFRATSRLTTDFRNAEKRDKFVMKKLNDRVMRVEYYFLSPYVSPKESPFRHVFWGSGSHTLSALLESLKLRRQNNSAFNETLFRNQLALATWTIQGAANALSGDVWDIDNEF
T7 sequence (P08637 17-208 limits assumed): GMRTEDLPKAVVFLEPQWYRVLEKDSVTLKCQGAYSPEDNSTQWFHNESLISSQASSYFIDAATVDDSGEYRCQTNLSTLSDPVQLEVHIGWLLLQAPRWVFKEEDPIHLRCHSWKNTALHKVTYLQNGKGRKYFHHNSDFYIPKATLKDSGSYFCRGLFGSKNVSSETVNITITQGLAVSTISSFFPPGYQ
T10 sequence (P55899 24-297 limits assumed, form in doubt, chain 1 of 2): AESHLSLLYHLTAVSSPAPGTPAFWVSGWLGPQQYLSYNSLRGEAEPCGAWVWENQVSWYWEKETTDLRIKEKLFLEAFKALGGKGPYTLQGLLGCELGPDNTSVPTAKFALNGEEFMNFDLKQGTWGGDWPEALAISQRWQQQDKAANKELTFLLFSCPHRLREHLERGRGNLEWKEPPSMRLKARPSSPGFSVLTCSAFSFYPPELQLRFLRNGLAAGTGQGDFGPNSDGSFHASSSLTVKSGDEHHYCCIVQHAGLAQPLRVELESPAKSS
T10 sequence (P61769 21-119 limits assumed, form in doubt, chain 2 of 2): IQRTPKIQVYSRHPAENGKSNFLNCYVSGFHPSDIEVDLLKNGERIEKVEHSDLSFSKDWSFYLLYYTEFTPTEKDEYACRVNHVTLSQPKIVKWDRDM
T3 sequence (Q99376 whole entry): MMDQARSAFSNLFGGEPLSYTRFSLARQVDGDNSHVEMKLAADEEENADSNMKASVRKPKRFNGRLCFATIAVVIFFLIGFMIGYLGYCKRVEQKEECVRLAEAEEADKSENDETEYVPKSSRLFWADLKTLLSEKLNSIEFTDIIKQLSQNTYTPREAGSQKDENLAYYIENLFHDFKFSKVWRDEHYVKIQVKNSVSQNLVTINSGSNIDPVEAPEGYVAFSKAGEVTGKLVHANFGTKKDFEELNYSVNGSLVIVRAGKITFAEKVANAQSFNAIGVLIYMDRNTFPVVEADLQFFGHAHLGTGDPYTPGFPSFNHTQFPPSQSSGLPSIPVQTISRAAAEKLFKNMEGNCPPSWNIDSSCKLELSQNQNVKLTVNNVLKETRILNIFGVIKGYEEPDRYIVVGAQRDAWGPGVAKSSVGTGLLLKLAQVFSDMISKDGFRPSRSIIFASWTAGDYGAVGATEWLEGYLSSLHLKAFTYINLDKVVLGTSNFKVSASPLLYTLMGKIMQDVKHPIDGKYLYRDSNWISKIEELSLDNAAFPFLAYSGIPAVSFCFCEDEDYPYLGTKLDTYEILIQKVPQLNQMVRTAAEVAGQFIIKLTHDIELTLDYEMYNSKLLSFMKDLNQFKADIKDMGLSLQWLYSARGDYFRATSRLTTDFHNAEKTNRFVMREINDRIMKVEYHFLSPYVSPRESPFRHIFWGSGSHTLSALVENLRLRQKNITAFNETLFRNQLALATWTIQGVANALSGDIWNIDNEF
T8 sequence (P08637 17-208 F176V): as the sequence (P08637 17-208 limits assumed) above, with F160V counted along it

B1: anti-CD71 Ab21.12 LcB:HcC antibody (antibody, V domains shown)
VH: QVQLVQSGAEVKKPGASVKMSCKASGYTFTSYWMHWVRQAPGQGLEWIGAIYPGNSETGYAQKFQGRATLTADTSTSTAYMELSSLRSEDTAVYYCTRENWDPGFAFWGQGTLITVSS
VL: DIQMTQSPSSLSASVGDRVTITCSASSSVYYMYWFQQKPGKAPKLWIYSTSNLASGVPSRFSGSGSGTDYTLTISSMQPEDFATYYCQQRRNYPYTFGQGTKLEIK
notes: Humanized; also called huCD71 21.12 Ab; anti-CD71 21.12 antibody
Does B1 bind (recombinant mouse CD71)?
Result: no binding

And the Kd [1]?
Its Kd is 2.29 nM.

Does B1 bind [2]?
Result: no binding

What about the Kd [3] of the same binder?
Its Kd is 0.3 nM.

What about the Kd [4] of the same binder?
The Kd was 0.4 nM.

What about the Kd [5] of the same binder?
Its Kd is 3 nM.

And the Kd [6]?
Its Kd is 0.03 nM.

And the Kd [7]?
The Kd was 0.03 nM.

And the Kd [8]?
The Kd was 0.3 nM.

And the Kd [9]?
Its Kd is 3 nM.

What about the Kd [10] of the same binder?
The Kd was 0.8 nM.

B2: conjugated antibody anti-CD71 Ab21.12-vcMMAE E2 (antibody, V domains shown)
VH: QVQLVQSGAEVKKPGASVKMSCKASGYTFTSYWMHWVRQAPGQGLEWIGAIYPGNSETGYAQKFQGRATLTADTSTSTAYMELSSLRSEDTAVYYCTRENWDPGFAFWGQGTLITVSS
VL: DIQMTQSPSSLSASVGDRVTITCSASSSVYYMYWFQQKPGKAPKLWIYSTSNLASGVPSRFSGSGSGTDYTLTISSMQPEDFATYYCQQRRNYPYTFGQGTKLEIK
modifications: vc-MMAE conjugated; DAR about 2 (E2); positions not given
notes: Unmasked antibody drug conjugate of Ab21.12
Which Kd [6] does the source give for B2 here?
Its Kd is 0.04 nM.

What about the Kd [7] of the same binder?
Its Kd is 0.03 nM.

B3: humanized anti-CD71 antibody Ab21.10 LcB:HcA (antibody, V domains shown)
VH: QVQLVQSGAEVKKPGASVKVSCKASGYTFTSYWMHWVRQAPGQGLEWMGAIYPGNSETGYAQKFQGRVTMTRDTSTSTVYMELSSLRSEDTAVYYCARENWDPGFAFWGQGTLVTVSS
VL: DIQMTQSPSSLSASVGDRVTITCSASSSVYYMYWFQQKPGKAPKLWIYSTSNLASGVPSRFSGSGSGTDYTLTISSMQPEDFATYYCQQRRNYPYTFGQGTKLEIK
notes: Detected with anti-human IgG
Does B3 bind [11]?
Result: binds

B4: anti-CD71-TF02.13-2011, protease-activated (cleaved) (antibody, not shown: small tags and cut ends)
heavy: not shown
light: DIQMTQSPSSLSASVGDRVTITCSASSSVYYMYWFQQKPGKAPKLWIYSTSNLASGVPSRFSGSGSGTDYTLTISSMQPEDFATYYCQQRRNYPYTFGQGTKLEIKRTVAAPSVFIFPPSDEQLKSGTASVVCLLNNFYPREAKVQWKVDNALQSGNSQESVTEQDSKDSTYSLSSTLTLSKADYEKHKVYACEVTHQGLSSPVTKSFNRGEC
notes: the mask is released
How did the Kd [6] turn out when B4 was run?
The Kd was 0.06 nM.

And the Kd [7]?
Its Kd is 0.04 nM.

And the Kd [8]?
Its Kd is 0.5 nM.

What about the Kd [12] of the same binder?
Its Kd is 0.04 nM.

And the Kd [13]?
Its Kd is 0.06 nM.

And the Kd [10]?
Its Kd is 2 nM.

And the “EC50 (read off the curve)” value [14]?
The value was roughly 0.06 nM.

B5: anti-CD71-TF02.13-2011-vcMMAE E2, protease-activated (cleaved) (antibody, not shown: small tags and cut ends)
heavy: not shown
light: DIQMTQSPSSLSASVGDRVTITCSASSSVYYMYWFQQKPGKAPKLWIYSTSNLASGVPSRFSGSGSGTDYTLTISSMQPEDFATYYCQQRRNYPYTFGQGTKLEIKRTVAAPSVFIFPPSDEQLKSGTASVVCLLNNFYPREAKVQWKVDNALQSGNSQESVTEQDSKDSTYSLSSTLTLSKADYEKHKVYACEVTHQGLSSPVTKSFNRGEC
modifications: vc-MMAE on interchain cysteine thiols; drug load 2 per antibody; chain and positions not stated
notes: m14 after protease treatment; the mask is released
Which results are given for B5?
Kd [6]: 0.05 nM; Kd [7]: 0.04 nM; Kd [8]: 0.7 nM; Kd [12]: 0.05 nM; Kd [13]: 0.07 nM; Kd [10]: 2 nM; EC50 (read off the curve) [14]: ~0.07 nM

B6: anti-CD71 activatable antibody anti-CD71-TF02.13-2011, intact (uncleaved) (antibody, human IgG1, kappa)
heavy: not shown
light: NLCTEHSAALDCRSYGGGSSGGSISSGLLSGRSDNPGGGSDIQMTQSPSSLSASVGDRVTITCSASSSVYYMYWFQQKPGKAPKLWIYSTSNLASGVPSRFSGSGSGTDYTLTISSMQPEDFATYYCQQRRNYPYTFGQGTKLEIKRTVAAPSVFIFPPSDEQLKSGTASVVCLLNNFYPREAKVQWKVDNALQSGNSQESVTEQDSKDSTYSLSSTLTLSKADYEKHKVYACEVTHQGLSSPVTKSFNRGEC
notes: copies: 2 + 2
Which results are given for B6?
Ratio anti-CD71-TF02.13-2011/Ab21.12 [15]: 37; Ratio anti-CD71-TF02.13-2011/anti-CD71-TF02.13-2011, matriptase activated [15]: 28; Ratio anti-CD71-TF02.13-2011/Ab21.12 [16]: 65; Ratio anti-CD71-TF02.13-2011/anti-CD71-TF02.13-2011, matriptase activated [16]: 32; Ratio anti-CD71-TF02.13-2011/Ab21.12 [17]: 93; Ratio anti-CD71-TF02.13-2011/anti-CD71-TF02.13-2011, matriptase activated [17]: 56; Kd [6]: 1.94 nM; Kd [18]: 1800 nM; Kd [19]: 180 nM; Ratio anti-CD71-TF02.13-2011/Ab21.12 [20]: 127; Ratio anti-CD71-TF02.13-2011/anti-CD71-TF02.13-2011, matriptase activated [20]: 55; Kd [7]: 1.11 nM; Kd [8]: 28 nM; Kd [12]: 0.42 nM; Kd [21]: 4.7 µM; Kd [13]: 1.24 nM; Kd [10]: 106 nM; EC50 (read off the curve) [14]: ~1 nM; Kd (human FcRn): 4.7 µM; EC50 (read off the curve) [22]: ~30 nM

B7: anti-CD71 conjugated activatable antibody anti-CD71-TF02.13-2011-vcMMAE E2, intact (uncleaved) (antibody, human IgG1, kappa)
heavy: not shown
light: NLCTEHSAALDCRSYGGGSSGGSISSGLLSGRSDNPGGGSDIQMTQSPSSLSASVGDRVTITCSASSSVYYMYWFQQKPGKAPKLWIYSTSNLASGVPSRFSGSGSGTDYTLTISSMQPEDFATYYCQQRRNYPYTFGQGTKLEIKRTVAAPSVFIFPPSDEQLKSGTASVVCLLNNFYPREAKVQWKVDNALQSGNSQESVTEQDSKDSTYSLSSTLTLSKADYEKHKVYACEVTHQGLSSPVTKSFNRGEC
modifications: vc-MMAE (maleimide caproyl-valine-citrulline linker with monomethyl auristatin E) on interchain cysteine thiols after partial TCEP reduction; drug load 2 per activatable antibody; chain and positions not stated
notes: E2 = enriched for drug load 2 (DAR about 2); also called AADC; copies: 2 + 2
Does B7 bind (human FcγRI)?
Result: binds

And the Kd [6]?
Its Kd is 2.58 nM.

And the Kd [18]?
The Kd was 2100 nM.

And the Kd [7]?
Its Kd is 1.02 nM.

What about the Kd [8] of the same binder?
The Kd was 35 nM.

What about the Kd [12] of the same binder?
The Kd was 0.48 nM.

What about the Kd [21] of the same binder?
The Kd was 6.2 µM.

And the Kd [13]?
The Kd was 1.49 nM.

What about the Kd [10] of the same binder?
The Kd was 98.1 nM.

What about the “EC50 (read off the curve)” value [14] of the same binder?
The value was roughly 1 nM.

And the Kd (human FcRn)?
The Kd was 5.3 µM.

What about the “EC50 (read off the curve)” value [22] of the same binder?
Its value is roughly 30 nM.
